Experiments:
NR2A = biological target: T1, NR2A (Homo sapiens, UniProt Q12879); test: Ion channel panel (IonWorks Barracuda): NR2A; type: cell-based; conditions: 100% = no change, <100% = inhibition
T1 construct: host or cells: HEK293 or CHO
Description: (§1) This example describes a method for assaying ion channel activity in cells.
(§2) Peptides were screened in duplicate at final concentrations of 20 μM and 200 nM, as determined by amino acid analysis, and diluted into HEPES buffered physiological saline (HBPS). HEK293 or CHO cells from the American Type Culture Collection (ATCC) were transfected with the appropriate ion channel before use. HEK293 cells were grown in Dulbecco's Modified Eagle Medium/Nutrient Mixture F-12, and CHO cells were cultured in Ham's F-12 media. All cultures were supplemented with 10% fetal bovine serum, 100 U/ml penicillin G, 100 μg/ml streptomycin sulfate, and the appropriate selection antibiotics. Prior to use, cells were washed twice with Hank's Balanced Salt Solution, and treated with Accutase cell detachment solution (Sigma-Aldrich). Cells were then washed. Peptides and controls were incubated with cells for at least five minutes.
(§3) Percent inhibition was defined as: (1-(Ipeptide/Icontrol))×100%).
(§4) Percent values were calculated using the following formula: % activation=(IPeptide/Icontrol)×100%, where IPeptide is the current produced by co-application a peptide with agonist, and Icontrol refers to the current produced by stimulation in control. Control used for each ion channel is the reference compound matched to a particular channel, as illustrated in TABLE 10 below.

α3β4 = biological target: T2, α3β4 (Homo sapiens, UniProt P30926+P32297); test: Ion channel panel (IonWorks Barracuda): α3β4; type: cell-based; conditions: 100% = no change, <100% = inhibition
T2 construct: host or cells: HEK293 or CHO
Description: as §1, §2, §3, §4

Kv2.1 = biological target: T3, Kv2.1 (Homo sapiens, UniProt Q14721); test: cell-based; conditions: 100% = no change, <100% = inhibition
T3 construct: host or cells: HEK293 or CHO
Description: as §1, §2, §3, §4

Cav2.2 = biological target: T4, Cav2.2 (Homo sapiens, UniProt Q00975); test: cell-based; conditions: 100% = no change, <100% = inhibition
T4 construct: host or cells: HEK293 or CHO
Description: as §1, §2, §3, §4

Cav2.1 = biological target: T5, Cav2.1 (Homo sapiens, UniProt O00555); test: cell-based; conditions: 100% = no change, <100% = inhibition
T5 construct: host or cells: HEK293 or CHO
Description: as §1, §2, §3, §4

Kir2.1 = biological target: T6, Kir2.1 (Homo sapiens, UniProt P63252); test: Ion channel panel (IonWorks Barracuda): Kir2.1; type: cell-based; conditions: 100% = no change, <100% = inhibition
T6 construct: host or cells: HEK293 or CHO
Description: as §1, §2, §3, §4

hERG = hERG (Homo sapiens, UniProt Q12809); test: in vitro; conditions: 100% = no change, <100% = inhibition
Description: as §1, §2, §3, §4

Nav1.5 = Nav1.5 (Homo sapiens, UniProt Q14524); test: in vitro; conditions: 100% = no change; for Activity of Nav1.5 with peptide, expressed as a percentage of the reference compound: peptide at 0.2 μM; for Activity of Nav1.5 with peptide (percentage of the reference compound): peptide at 20 μM
Sequence of Nav1.5 (Q14524 whole entry): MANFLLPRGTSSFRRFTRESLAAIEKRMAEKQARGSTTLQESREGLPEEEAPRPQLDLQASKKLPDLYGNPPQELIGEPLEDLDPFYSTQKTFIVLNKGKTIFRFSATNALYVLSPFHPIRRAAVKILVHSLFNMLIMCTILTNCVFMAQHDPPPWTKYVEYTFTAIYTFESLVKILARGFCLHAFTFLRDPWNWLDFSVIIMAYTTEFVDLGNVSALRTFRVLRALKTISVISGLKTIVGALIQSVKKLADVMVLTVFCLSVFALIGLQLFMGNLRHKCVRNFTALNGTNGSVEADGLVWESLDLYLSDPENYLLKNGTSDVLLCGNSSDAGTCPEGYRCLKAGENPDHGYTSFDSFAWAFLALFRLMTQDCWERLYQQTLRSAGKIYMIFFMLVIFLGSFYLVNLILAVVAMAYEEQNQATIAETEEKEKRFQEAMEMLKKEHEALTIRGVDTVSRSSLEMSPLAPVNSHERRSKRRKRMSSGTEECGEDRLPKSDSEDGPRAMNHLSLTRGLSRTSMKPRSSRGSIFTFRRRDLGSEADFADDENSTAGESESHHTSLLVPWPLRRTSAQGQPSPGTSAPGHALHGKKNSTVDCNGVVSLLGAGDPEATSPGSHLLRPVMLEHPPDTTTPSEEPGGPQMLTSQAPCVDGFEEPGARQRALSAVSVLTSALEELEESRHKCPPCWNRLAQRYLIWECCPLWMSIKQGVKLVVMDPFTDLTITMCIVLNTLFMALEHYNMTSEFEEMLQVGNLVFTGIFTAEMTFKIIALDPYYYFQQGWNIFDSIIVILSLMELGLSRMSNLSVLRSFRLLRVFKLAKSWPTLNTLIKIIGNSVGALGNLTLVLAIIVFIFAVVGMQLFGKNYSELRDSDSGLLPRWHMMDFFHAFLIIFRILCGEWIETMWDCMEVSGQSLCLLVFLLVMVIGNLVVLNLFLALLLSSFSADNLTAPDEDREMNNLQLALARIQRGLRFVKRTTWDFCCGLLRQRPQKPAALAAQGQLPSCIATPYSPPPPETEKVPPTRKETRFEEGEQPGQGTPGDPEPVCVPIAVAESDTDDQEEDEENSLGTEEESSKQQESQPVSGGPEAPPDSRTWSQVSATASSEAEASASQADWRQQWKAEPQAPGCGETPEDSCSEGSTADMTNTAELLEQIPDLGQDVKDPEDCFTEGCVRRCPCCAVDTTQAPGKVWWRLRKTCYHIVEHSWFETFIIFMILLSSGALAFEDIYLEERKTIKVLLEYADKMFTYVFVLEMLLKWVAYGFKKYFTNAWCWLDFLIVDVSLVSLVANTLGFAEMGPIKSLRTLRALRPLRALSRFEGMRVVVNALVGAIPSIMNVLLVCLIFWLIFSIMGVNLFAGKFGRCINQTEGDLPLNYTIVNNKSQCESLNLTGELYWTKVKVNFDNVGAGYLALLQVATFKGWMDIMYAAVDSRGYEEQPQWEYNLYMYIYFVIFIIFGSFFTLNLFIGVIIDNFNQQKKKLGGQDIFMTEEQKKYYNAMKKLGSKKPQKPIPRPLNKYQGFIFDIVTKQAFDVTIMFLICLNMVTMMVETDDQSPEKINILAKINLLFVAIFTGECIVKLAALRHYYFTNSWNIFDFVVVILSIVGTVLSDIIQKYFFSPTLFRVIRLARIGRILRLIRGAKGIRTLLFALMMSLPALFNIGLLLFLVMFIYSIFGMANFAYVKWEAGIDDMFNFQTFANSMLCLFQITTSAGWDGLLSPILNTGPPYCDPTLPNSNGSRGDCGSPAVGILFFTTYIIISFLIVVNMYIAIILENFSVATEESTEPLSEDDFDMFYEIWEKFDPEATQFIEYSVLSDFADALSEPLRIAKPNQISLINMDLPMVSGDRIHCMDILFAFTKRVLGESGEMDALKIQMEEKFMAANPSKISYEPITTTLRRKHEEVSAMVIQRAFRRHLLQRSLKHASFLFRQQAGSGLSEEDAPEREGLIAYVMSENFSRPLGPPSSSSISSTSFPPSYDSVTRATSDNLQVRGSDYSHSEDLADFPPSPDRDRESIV
Description: as §1, §2, §3, §4

5HT3a = biological target: T7, 5HT3a (Homo sapiens, UniProt P46098); test: Ion channel panel (IonWorks Barracuda): 5HT3a; type: cell-based
T7 construct: host or cells: HEK293 or CHO
T7 sequence (P46098 whole entry, looked up): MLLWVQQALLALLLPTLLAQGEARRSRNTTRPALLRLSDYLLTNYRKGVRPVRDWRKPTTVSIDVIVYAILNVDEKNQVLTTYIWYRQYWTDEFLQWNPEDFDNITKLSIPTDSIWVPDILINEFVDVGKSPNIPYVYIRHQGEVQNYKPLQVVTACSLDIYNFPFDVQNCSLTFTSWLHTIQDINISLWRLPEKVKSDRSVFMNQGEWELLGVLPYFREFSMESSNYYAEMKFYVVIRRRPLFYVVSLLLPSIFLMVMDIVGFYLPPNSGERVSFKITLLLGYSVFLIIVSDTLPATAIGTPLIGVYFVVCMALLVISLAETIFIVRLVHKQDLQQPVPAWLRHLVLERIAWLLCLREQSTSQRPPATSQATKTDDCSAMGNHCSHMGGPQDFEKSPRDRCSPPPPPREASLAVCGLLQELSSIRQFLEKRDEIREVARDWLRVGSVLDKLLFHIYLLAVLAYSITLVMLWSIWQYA
Description: as §1, §2, §3, §4

GABA = test: Ion channel panel (IonWorks Barracuda): GABA; type: cell-based; conditions: 100% = no change, <100% = inhibition
Description: as §1, §2, §3, §4

Kv1.1 = biological target: T8, Kv1.1 (Homo sapiens, UniProt Q09470); test: cell-based; type: cell-based; conditions: 100% = no change, <100% = inhibition
T8 construct: host or cells: HEK293 or CHO
T8 sequence (Q09470 whole entry): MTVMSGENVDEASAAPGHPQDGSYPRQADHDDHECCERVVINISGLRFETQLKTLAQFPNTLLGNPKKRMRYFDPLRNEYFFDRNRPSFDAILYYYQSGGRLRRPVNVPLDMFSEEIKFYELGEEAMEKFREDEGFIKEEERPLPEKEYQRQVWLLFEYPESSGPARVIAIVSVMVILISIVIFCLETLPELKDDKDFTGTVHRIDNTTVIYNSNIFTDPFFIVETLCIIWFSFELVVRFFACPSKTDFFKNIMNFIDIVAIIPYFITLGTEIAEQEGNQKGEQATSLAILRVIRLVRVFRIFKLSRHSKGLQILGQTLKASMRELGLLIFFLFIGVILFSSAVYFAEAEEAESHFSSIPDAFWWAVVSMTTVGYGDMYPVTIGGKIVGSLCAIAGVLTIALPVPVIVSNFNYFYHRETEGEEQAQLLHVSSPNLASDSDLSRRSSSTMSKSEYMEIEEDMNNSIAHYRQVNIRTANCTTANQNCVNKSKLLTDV
Description: as §1, §2, §3, §4

Kv1.2 = biological target: T9, Kv1.2 (Homo sapiens, UniProt P16389); test: cell-based; type: cell-based; conditions: 100% = no change, <100% = inhibition
T9 construct: host or cells: HEK293 or CHO
Description: as §1, §2, §3, §4

Kv1.3 = biological target: T10, Kv1.3 (Homo sapiens, UniProt P22001); test: cell-based; type: cell-based; conditions: 100% = no change, <100% = inhibition
T10 construct: host or cells: HEK293 or CHO
T10 sequence (P22001 whole entry): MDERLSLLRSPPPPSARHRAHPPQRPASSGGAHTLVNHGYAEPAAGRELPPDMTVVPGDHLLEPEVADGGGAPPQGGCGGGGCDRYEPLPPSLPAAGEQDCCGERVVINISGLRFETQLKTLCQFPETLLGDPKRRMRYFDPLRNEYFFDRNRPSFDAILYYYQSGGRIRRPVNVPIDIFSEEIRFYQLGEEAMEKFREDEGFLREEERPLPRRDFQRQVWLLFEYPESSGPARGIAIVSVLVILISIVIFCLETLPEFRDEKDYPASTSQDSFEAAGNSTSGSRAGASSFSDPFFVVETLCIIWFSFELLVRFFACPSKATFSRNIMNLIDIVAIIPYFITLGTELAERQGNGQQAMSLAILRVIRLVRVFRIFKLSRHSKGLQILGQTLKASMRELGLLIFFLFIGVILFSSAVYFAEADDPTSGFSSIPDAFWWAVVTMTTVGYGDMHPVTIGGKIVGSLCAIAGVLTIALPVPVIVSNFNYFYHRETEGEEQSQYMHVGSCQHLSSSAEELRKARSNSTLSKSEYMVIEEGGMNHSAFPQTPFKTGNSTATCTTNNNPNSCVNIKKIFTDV
Description: as §1, §2, §3, §4

Nav1.7 = biological target: T11, Nav1.7 (Homo sapiens, UniProt Q15858); test: cell-based; type: cell-based; conditions: 100% = no change; for Activity of Nav1.7 with peptide, expressed as a percentage of the reference compound: peptide at 0.2 μM; for Activity of Nav1.7 with peptide (percentage of the reference compound): peptide at 20 μM
T11 construct: host or cells: HEK293 or CHO
T11 sequence (Q15858 whole entry): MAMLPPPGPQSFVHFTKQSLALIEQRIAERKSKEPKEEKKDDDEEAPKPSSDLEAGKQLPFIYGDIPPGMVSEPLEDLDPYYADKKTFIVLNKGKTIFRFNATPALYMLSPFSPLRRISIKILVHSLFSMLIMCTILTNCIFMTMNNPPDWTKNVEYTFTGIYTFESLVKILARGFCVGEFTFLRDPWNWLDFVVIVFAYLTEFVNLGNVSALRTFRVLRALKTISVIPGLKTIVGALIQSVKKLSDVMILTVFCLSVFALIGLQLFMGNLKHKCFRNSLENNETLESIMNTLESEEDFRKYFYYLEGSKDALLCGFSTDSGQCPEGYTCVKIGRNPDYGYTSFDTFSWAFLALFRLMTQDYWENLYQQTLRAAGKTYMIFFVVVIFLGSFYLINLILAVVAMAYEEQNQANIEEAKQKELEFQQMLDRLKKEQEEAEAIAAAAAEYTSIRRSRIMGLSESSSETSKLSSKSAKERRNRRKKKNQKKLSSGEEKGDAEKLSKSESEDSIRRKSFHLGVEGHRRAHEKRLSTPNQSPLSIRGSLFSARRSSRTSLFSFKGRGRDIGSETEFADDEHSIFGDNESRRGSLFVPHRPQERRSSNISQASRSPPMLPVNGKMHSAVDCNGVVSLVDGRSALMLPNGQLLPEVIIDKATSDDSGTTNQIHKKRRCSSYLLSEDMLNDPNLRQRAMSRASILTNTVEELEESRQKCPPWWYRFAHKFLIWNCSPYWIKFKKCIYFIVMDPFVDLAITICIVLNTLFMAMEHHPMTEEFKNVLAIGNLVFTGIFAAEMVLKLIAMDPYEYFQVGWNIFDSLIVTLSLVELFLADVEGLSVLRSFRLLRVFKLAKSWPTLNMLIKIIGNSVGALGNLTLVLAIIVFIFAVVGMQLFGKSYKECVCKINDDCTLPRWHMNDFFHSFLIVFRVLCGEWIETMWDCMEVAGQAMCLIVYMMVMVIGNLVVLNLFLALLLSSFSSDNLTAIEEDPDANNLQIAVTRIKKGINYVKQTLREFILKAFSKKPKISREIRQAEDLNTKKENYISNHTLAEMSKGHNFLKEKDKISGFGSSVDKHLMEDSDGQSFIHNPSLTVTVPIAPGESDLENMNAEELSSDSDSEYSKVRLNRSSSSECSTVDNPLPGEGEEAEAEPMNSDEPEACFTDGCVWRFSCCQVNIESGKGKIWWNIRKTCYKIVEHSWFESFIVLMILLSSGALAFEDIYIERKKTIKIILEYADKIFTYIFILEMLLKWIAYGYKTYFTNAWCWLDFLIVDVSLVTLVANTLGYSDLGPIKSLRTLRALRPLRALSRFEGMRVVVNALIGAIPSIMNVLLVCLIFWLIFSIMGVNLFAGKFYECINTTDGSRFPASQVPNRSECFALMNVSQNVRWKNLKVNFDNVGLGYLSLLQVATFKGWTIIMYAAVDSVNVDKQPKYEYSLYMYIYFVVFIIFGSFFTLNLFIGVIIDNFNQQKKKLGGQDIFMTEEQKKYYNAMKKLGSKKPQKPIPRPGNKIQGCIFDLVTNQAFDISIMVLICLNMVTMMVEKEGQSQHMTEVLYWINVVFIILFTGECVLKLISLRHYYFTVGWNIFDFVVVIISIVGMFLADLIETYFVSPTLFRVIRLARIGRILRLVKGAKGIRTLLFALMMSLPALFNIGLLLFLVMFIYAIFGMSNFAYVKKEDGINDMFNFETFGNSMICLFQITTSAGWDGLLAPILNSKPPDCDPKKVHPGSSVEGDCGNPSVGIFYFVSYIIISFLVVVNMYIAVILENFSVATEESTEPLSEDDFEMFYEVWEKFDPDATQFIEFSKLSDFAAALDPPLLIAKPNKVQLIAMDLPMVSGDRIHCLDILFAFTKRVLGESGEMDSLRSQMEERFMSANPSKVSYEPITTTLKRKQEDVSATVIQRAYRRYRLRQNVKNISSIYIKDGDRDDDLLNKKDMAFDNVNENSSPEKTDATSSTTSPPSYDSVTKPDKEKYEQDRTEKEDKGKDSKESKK
Description: as §1
as §2, with “Peptides were screened in duplicate at final concentrations of 20 μM and 200 nM, as determined by amino acid analysis, and diluted into HEPES buffered physiological saline (HBPS).” left out
as §3, §4

α4β2 = biological target: T12, α4β2 (Homo sapiens, UniProt P17787+P43681); test: Ion channel panel (IonWorks Barracuda): α4β2; type: cell-based; conditions: 100% = no change, <100% = inhibition
T12 construct: host or cells: HEK293 or CHO
Description: as §1, §2, §3, §4

TRPV1 = biological target: T13, TRPV1 (Homo sapiens, UniProt Q8NER1); test: Ion channel panel (IonWorks Barracuda): TRPV1; type: cell-based; conditions: 100% = no change, <100% = inhibition
T13 construct: host or cells: HEK293 or CHO
Description: as §1, §2, §3, §4

NR2B = biological target: T14, NR2B (Homo sapiens, UniProt Q13224); test: Ion channel panel (IonWorks Barracuda): NR2B; type: cell-based; conditions: 100% = no change, <100% = inhibition
T14 construct: host or cells: HEK293 or CHO
Description: as §1, §2, §3, §4

TRPA1 = biological target: T15, TRPA1 (Homo sapiens, UniProt O75762); test: Ion channel panel (IonWorks Barracuda): TRPA1; type: cell-based; conditions: 100% = no change, <100% = inhibition
T15 construct: host or cells: HEK293 or CHO
Description: as §1, §2, §3, §4

[1] = first of two Nav1.5 columns (probably TP1)
[2] = second of two Nav1.5 columns (probably TP2)
[3] = first of two Nav1.7 columns (probably TP1)
[4] = second of two Nav1.7 columns (probably TP2)

Question: “21 (GSAEIIRCSGTRECYAPCQKLTGCLNAKCMNKACKCYGCV) [compound 21]” was tested. Which “Activity of NR2A with peptide, expressed as a percentage of the reference compound” value (NR2A; peptide at 0.2 μM) did it give?
Answer: 105%

Question: And the “Activity of NR2A with peptide (percentage of the reference compound)” value (NR2A; peptide at 20 μM)?
Answer: 103%

Question: And the “Activity of a3b4 with peptide, expressed as a percentage of the reference compound” value (α3β4; peptide at 0.2 μM)?
Answer: 102%

Question: And the “Activity of a3b4 with peptide (percentage of the reference compound)” value (α3β4; peptide at 20 μM)?
Answer: 93%

Question: What about the “Activity of Kv2.1 with peptide, expressed as a percentage of the reference compound” value (Kv2.1; peptide at 0.2 μM) of the same substance?
Answer: 110%

Question: And the “Activity of Kv2.1 with peptide (percentage of the reference compound)” value (Kv2.1; peptide at 20 μM)?
Answer: 108%

Question: And the “Activity of Cav2.2 with peptide, expressed as a percentage of the reference compound” value (Cav2.2; peptide at 0.2 μM)?
Answer: 98%

Question: And the “Activity of Cav2.2 with peptide (percentage of the reference compound)” value (Cav2.2; peptide at 20 μM)?
Answer: 105%

Question: What about the “Activity of Cav2.1 with peptide, expressed as a percentage of the reference compound” value (Cav2.1; peptide at 0.2 μM) of the same substance?
Answer: 103%

Question: And the “Activity of Cav2.1 with peptide (percentage of the reference compound)” value (Cav2.1; peptide at 20 μM)?
Answer: 106%

Question: What about the “Activity of Kir2.1 with peptide, expressed as a percentage of the reference compound” value (Kir2.1; peptide at 0.2 μM) of the same substance?
Answer: 105%

Question: And the “Activity of Kir2.1 with peptide (percentage of the reference compound)” value (Kir2.1; peptide at 20 μM)?
Answer: 101%

Question: And the “Activity of hERG with peptide, expressed as a percentage of the reference compound” value (hERG; peptide at 0.2 μM)?
Answer: 109%

Question: And the “Activity of hERG with peptide (percentage of the reference compound)” value (hERG; peptide at 20 μM)?
Answer: 72%

Question: What about the “Activity of Nav1.5 with peptide, expressed as a percentage of the reference compound” value (Nav1.5; [1]) of the same substance?
Answer: 108%

Question: What about the “Activity of Nav1.5 with peptide, expressed as a percentage of the reference compound” value (Nav1.5; [2]) of the same substance?
Answer: 105%

Question: What about the “Activity of Nav1.5 with peptide (percentage of the reference compound)” value (Nav1.5; [1]) of the same substance?
Answer: 96%

Question: And the “Activity of Nav1.5 with peptide (percentage of the reference compound)” value (Nav1.5; [2])?
Answer: 91%

Question: And the “Activity of 5HT3a with peptide (percentage of the reference compound)” value (5HT3a)?
Answer: 91%

Question: What about the “Activity of 5HT3a with peptide, expressed as a percentage of the reference compound” value (5HT3a) of the same substance?
Answer: 87%

Question: And the “Activity of GABA with peptide, expressed as a percentage of the reference compound” value (GABA; peptide at 0.2 μM)?
Answer: 111%

Question: And the “Activity of GABA with peptide (percentage of the reference compound)” value (GABA; peptide at 20 μM)?
Answer: 123%

Question: And the “Activity of Kv1.1 with peptide, expressed as a percentage of the reference compound” value (Kv1.1; peptide at 0.2 μM)?
Answer: 106%

Question: What about the “Activity of Kv1.1 with peptide (percentage of the reference compound)” value (Kv1.1; peptide at 20 μM) of the same substance?
Answer: 98%

Question: And the “Activity of Kv1.2 with peptide, expressed as a percentage of the reference compound” value (Kv1.2; peptide at 0.2 μM)?
Answer: 52%

Question: What about the “Activity of Kv1.2 with peptide (percentage of the reference compound)” value (Kv1.2; peptide at 20 μM) of the same substance?
Answer: 36%

Question: And the “Activity of Kv1.3 with peptide, expressed as a percentage of the reference compound” value (Kv1.3; peptide at 0.2 μM)?
Answer: 65%

Question: What about the “Activity of Kv1.3 with peptide (percentage of the reference compound)” value (Kv1.3; peptide at 20 μM) of the same substance?
Answer: 5%

Question: And the “Activity of Nav1.7 with peptide, expressed as a percentage of the reference compound” value (Nav1.7; [3])?
Answer: 112%

Question: And the “Activity of Nav1.7 with peptide, expressed as a percentage of the reference compound” value (Nav1.7; [4])?
Answer: 120%

Question: What about the “Activity of Nav1.7 with peptide (percentage of the reference compound)” value (Nav1.7; [3]) of the same substance?
Answer: 105%

Question: And the “Activity of Nav1.7 with peptide (percentage of the reference compound)” value (Nav1.7; [4])?
Answer: 123%

Question: And the “Activity of a4b2 with peptide, expressed as a percentage of the reference compound” value (α4β2; peptide at 0.2 μM)?
Answer: 102%

Question: What about the “Activity of a4b2 with peptide (percentage of the reference compound)” value (α4β2; peptide at 20 μM) of the same substance?
Answer: 85%

Question: And the “Activity of TRPV1 with peptide, expressed as a percentage of the reference compound” value (TRPV1; peptide at 0.2 μM)?
Answer: 106%

Question: What about the “Activity of TRPV1 with peptide (percentage of the reference compound)” value (TRPV1; peptide at 20 μM) of the same substance?
Answer: 86%

Question: And the “Activity of NR2B with peptide, expressed as a percentage of the reference compound” value (NR2B; peptide at 0.2 μM)?
Answer: 113%

Question: What about the “Activity of NR2B with peptide (percentage of the reference compound)” value (NR2B; peptide at 20 μM) of the same substance?
Answer: 105%

Question: And the “Activity of TRPA1 with peptide, expressed as a percentage of the reference compound” value (TRPA1; peptide at 0.2 μM)?
Answer: 119%

Question: And the “Activity of TRPA1 with peptide (percentage of the reference compound)” value (TRPA1; peptide at 20 μM)?
Answer: 95%

From patent publication US20200262877A1, “ION CHANNEL-BINDING PEPTIDES AND METHODS OF USE THEREOF” (priority 2017, published 2020)
